Tested on: His6-aptamers (peptide aptamers of FIGS. 4A and 4B, purified)

**Q.** How did the “phosphorylation of Histone H1 by Cdk2/Cyclin E kinase” value turn out when Cdk2/Cyclin E kinase was run?
**A.** Its value is “All tested aptamers were able to inhibit phosphorylation of Histone H1 by Cdk2/Cyclin E kinase”.

Source: patent US20090130676
